Laboratory results: paper PMC5863373, “Characterization of association of human mitochondrial lysyl-tRNA synthetase with HIV-1 Pol and tRNA3^Lys” (BMC Biochemistry, 2018)

Tests used:
[1] = target: T1, human mitochondrial lysyl-tRNA synthetase with a C-terminal HA-tag (human, UniProt Q15046-2); test: AlphaScreen or HTRF; settings: both partners purified
T1 construct: also called mLysRS; mLysRS-HA; source: E. coli, purified as described [12]

[2] = target: T2, HIV-1 integrase with a C-terminal His6 tag (HIV-1 (pNL4-3)); test: AlphaScreen or HTRF; settings: both partners purified
T2 construct: source: High Five insect cells (baculovirus), purified (Ni-NTA, Mono S); not shown: His6, C-terminal, kept

B1: p38, scaffold protein of the multi-synthetase complex (AIMP2), His-tagged (natural protein, human, UniProt Q13155 1-320, looked up)
chain: MPMYQVKPYHGGGAPLRVELPTCMYRLPNVHGRSYGPAPGAGHVQEESNLSLQALESRQDDILKRLYELKAAVDGLSKMIQTPDADLDVTNIIQADEPTTLTTNALDLNSVLGKDYGALKDIVINANPASPPLSLLVLHRLLCEHFRVLSTVHTHSSVKSVPENLLKCFGEQNKKQPRQDYQLGFTLIWKNVPKTQMKFSIQTMCPIEGEGNIARFLFSLFGQKHNAVNATLIDSWVDIAIFQLKEGSSKEKAAVFRSMNSALGKSPWLAGNELTVADVVLWSVLQQIGGCSVTVPANVQRWMRSCENLAPFNTALKLLK
notes: also called His-tagged p38
- Kd [1]: 0.5 nM

B2: mLysRS derivative with a C-terminal deletion of 22 aminoacid residues, with a C-terminal HA-tag (domain or fragment)
chain: not shown
- Kd [2]: 8.3 nM
